Measurements published in patent US20230279105A1 (SINGLE CELL TECHNOLOGY, published 2023).

B1: SCT-Fa012 (antibody, V domains shown)
VH: EVKLVESEGGLVQPGSSMKLSCTASGFTFSDYYMAWVRQVPEKGLEWVAHINFDGSGTYYLDSLKSRFIISRDNAKNILYLQLSSLKSEDTATYYCARLYDGSHDYWGQGTTLTVSS
VL: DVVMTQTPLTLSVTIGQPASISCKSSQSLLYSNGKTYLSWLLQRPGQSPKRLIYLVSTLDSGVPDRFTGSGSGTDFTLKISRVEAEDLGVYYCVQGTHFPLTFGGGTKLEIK
notes: murine IgG
B2: SCT-Fa011 (antibody, V domains shown)
VH: EVKLVESEGGLVQPGSSMKLSCTASGFTFSDYYMAWVRQVPEKGLEWVAHINFDGSGTYYLDSLKSRFIISRDNAKNILYLQLSSLKSEDTATYYCARLYDGSHDYWGQGTTLTVSS
VL: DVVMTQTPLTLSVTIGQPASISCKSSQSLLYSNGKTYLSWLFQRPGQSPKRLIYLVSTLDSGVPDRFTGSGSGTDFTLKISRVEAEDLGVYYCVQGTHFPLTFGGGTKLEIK
notes: murine IgG
B3: SCT-Fa017 (antibody, V domains shown)
VH: EVKLVESEGGLVQPGSSMKLSCTASGFTFSDYYMAWVRQVPEKGLEWVANINFDGSGTYYLDSLKSRFIISRDNAKNILYLQMSSLKSEDTATYYCARLYDGSHDYWGQGTTLTVSS
VL: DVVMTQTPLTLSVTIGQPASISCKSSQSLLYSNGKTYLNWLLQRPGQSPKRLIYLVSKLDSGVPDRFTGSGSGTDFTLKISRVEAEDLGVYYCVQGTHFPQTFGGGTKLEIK
notes: murine IgG
B4: SCT-Fa010 (antibody, V domains shown)
VH: EVKLVESEGGLVQPGSSMKLSCTASGFTFSDYYMAWVRQVPEKGLEWIANINFDGSGTYYLDSLKSRFIISRDNAKNILYLQMSSLKSEDTATYYCARLYDGSLDYWGQGTTLTVSS
VL: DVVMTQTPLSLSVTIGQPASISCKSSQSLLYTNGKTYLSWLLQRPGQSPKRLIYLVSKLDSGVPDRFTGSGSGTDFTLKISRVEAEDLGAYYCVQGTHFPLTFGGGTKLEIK
notes: murine IgG
B5: SCT-Fa019 (antibody, V domains shown)
VH: EVKLVESEGGLVQPGSSMKLSCTASGFTFSDYYMSWVRQVPEKGLEWVANINFDGSGTYYLDSLKSRFIISRDNAKNILYLQMSSLRSEDTATYYCARLYDGSHDYWGQGSALTVSS
VL: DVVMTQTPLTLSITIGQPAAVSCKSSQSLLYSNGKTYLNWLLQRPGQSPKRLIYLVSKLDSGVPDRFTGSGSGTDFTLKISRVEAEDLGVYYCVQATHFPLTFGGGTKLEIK
notes: murine IgG
B6: SCT-Fa016 (antibody, V domains shown)
VH: EVKLVESEGGLVQPGSSMKLSCTASGFTFSDYYMAWVRQVPEKGLEWVAHINFDGSGTYYLDSLKSRFIISRDNTKNILYLQLSSLKSEDTATYYCARLYDGSHDYWGQGTTLTVSS
VL: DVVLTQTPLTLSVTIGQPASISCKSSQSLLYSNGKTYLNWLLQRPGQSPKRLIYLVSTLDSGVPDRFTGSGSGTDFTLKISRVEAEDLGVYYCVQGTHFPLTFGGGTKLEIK
notes: murine IgG
B7: SCT-Fa014 (antibody, V domains shown)
VH: EVKLVESEGGLVQPGSSMKLSCTASGFTFSDYYMAWVRQVPEKGLEWVAHINFDGSGTYYLDSLKSRFIISRDNAKNILYLQLSSLKSEDTGTYYCARLYDGSHDYWGQGTTLTVSS
VL: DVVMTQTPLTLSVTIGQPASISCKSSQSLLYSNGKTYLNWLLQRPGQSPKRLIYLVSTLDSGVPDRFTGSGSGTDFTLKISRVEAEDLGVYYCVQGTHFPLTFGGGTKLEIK
notes: murine IgG
B8: SCT-Fa013 (antibody, V domains shown)
VH: EVKLVESEGGLVQPGSSMKLSCTASGFTFSDYYMAWVRQVPEKGLEWVAHINFDGSGTYYLDSLKSRFIISRDNAKNILYLQLSSLKSEDTGTYYCARLYDGSHDYWGQGTTLTVSS
VL: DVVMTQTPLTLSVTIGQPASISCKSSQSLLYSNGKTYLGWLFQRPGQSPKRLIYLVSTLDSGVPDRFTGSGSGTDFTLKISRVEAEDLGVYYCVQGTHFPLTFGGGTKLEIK
notes: murine IgG
B9: SCT-Fa015 (antibody, V domains shown)
VH: EVKLVESEGGLVQPGSSMKLSCTASGFTFSDYYMAWVRQVPEKGLEWVAHINFDGSGTYYLDSLKSRFIISRDNEKSILYLQLSSLKSEDTATYYCARLYDGSHDYWGQGTTLTVSS
VL: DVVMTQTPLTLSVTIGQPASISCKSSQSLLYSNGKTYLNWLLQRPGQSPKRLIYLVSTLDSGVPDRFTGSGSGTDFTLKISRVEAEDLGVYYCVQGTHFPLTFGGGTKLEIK
notes: murine IgG
B10: SCT-Fa107 (antibody, V domains shown)
VH: QVQLKQSGAELVRPGTSVKLSCKASGYTLTDYYINWVKQRPGQGLEWIARIYPGNGNTYYNEKFKGKATLTAEKSSSTVNMQVSSLTSEDSAVYFCARGGSSDRIYYYAMDYWGQGTSVTVSS
VL: DIQMNQSPSSLSASLGDTITITCHASQNINVWLSWYQQKPGNIPKLLIYKASNLHTGVPSRFSGSGSGTGFTLTISSLQPEDIATYYCQQGQSYPLTFGSGTKLEIK
notes: murine IgG
B11: SCT-Fa097 (antibody, V domains shown)
VH: QVQLKQSGAELVRPGTSVKLSCKASGYILTDYYINWVKQRPGQGLEWIARIYPGNGNTYYNEKFKGKATLTAEKSSSTVNMQVSSLTSEDSAVYFCARGGSSDRIYYYAMDHWGQGTSVTVSS
VL: DIQMNQSPSSLSASLGDTINITCHASQNINVWLSWYQQKPGNIPKLLIYKASNLHTGVPLRFSGSGSGTGFTLTISSLQPEDIATYYCQQGQSYPLTFGSGTKLEIK
notes: murine IgG
B12: SCT-Fa103 (antibody, V domains shown)
VH: QVQLKQSGAELVRPGTSVKLSCKASGYTLTDYYINWVKQRPGQGLEWIARIYPGNGNTLYNAKFEGKATLTAERSSSTAYMQVSSLTSEDSAVYFCARGGSSVRVYYYAMDFWGQGTSVTVSS
VL: DIQMNQSPSSLSASLGDTITITCHASQNINVWLSWYQQKPGNIPKLLIYKASNLHTGVPSRFSGSGSGTGFTLTISSLQPEDIATYYCQQGQSYPLTFGSGTKLEIK
notes: murine IgG
B13: SCT-Fa105 (antibody, V domains shown)
VH: QVQLKQSGAELVRPGTSVKLSCKASGYTLTDYYINWVKQRPGQGLEWIARIYPGNGNTYYNEKFKGKATLTAEKSSNTVNMQVSSLTSEDSAVYFCARGGSSDRIYYYAMDYWGQGTSVTVSS
VL: DIQMNQSPSSLSASLGDTITITCHASQNINVWLSWYQQKPGDIPKLLIYKASNLHTGVPSRFSGSGSGTGFTLTISSLQPEDIATYYCQQGQSYPLTFGSGTKLEIK
notes: murine IgG
B14: SCT-Fa101 (antibody, V domains shown)
VH: QVQLKQSGAELVRPGTSVKLSCKASGYTLIDYYINWVKQRPGQGLEWIARIYPGNGNTYYNEKFKGKATLTAEKSSSTVNMQVSSLTSEDSAVYFCARGGSSDRIYYYAMDYWGQGTSVTVSS
VL: DIQMNQSPSSLSASLGDTITITCHASQNINVWLSWYQQKPGNIPKLLIYKASNLHTGVPSRFSGSGSGTGFTLTISSLQPEDIATYYCQQGQSYPLTFGSGTKLEIK
notes: murine IgG
B15: SCT-Fa108 (antibody, V domains shown)
VH: QVQLKQSGAELVRPGTSVKLSCKASGYTLTDYYINWVKQRPGQGLEWIARIYPGNGNTYYNEKFKGKATLTAEKSSSTVNMQVTSLTSEDSAIYFCARGGSSDRIYYYAMDYWGQGTSVTVSS
VL: DIQMNQSPSSLSASLGDTITITCHASQNINVWLSWYQQKPGNIPKLLIYKASNLHTGVPSRFSGSGSGTGFTLTISSLQPEDIATYYCQQGQSYPLTFGSGTKLEVK
notes: murine IgG
B16: SCT-Fa106 (antibody, V domains shown)
VH: QVQLKQSGAELVRPGTSVKLSCKASGYTLTDYYINWVKQRPGQGLEWIARIYPGNGNTYYNEKFKGKATLTAEKSSSTAYMQVSSLTSEDSAVYFCARGGSSVRVYYYAMDYWGQGTSVTVSS
VL: DIQMNQSPSSLSASLGDTITITCHASQNINVWLSWYQQKPGNIPKLLIYKASNLHTGVTSRFSGSGSGTGFTLTISSLQPEDIATYYCQQGQSYPLTFGSGTKLEIK
notes: murine IgG
B17: SCT-Fa194 (antibody, V domains shown)
VH: QVQLRQSGAELVRPGTSVKLSCKASGYTLTDYYINWVKQRPGQGLEWIARIYPGNGNTYYNEKFKGKATLTAEKSSSTVNMQVSSLTSEDSAVYFCARGGSSDRIYYYAMDYWGQGTSVTVSS
VL: DIQMNQSPSSLSASLGDTITITCHASQNINVWLSWYQQKPGNILKLLIYKASNLHTGVPSRFSGSGSGTGFTLTISSLQPEDIATYYCQQGQSYPLTFGSGTKLEIK
notes: murine IgG
B18: SCT-Fa110 (antibody, V domains shown)
VH: QVQLKQSGAELVRPGTSVRLSCKASGYTLTDYYINWVKQRPGQGLEWIARIYPGNGNTYYNEKFKGKATLTAEKSSSTVNMQVTSLTSEDSAVYFCARGGSSDRIYYYAMDYWGQGTSVTVSS
VL: DIQMNQSPSSLSASLGDTITITCHASQNINVWLSWYQQKPGNIPKLLIYKASNLHTGVPSRFSGSGSGTGFTLTISSLQPEDIATYYCQQGQSYPLTFGSGTKLEIK
notes: murine IgG
B19: SCT-Fa104 (antibody, V domains shown)
VH: QVQLKQSGAELVRPGTSVKLSCKASGYTLTDYYINWVKQRPGQGLEWIARIYPGNGNTYYNEKFKCKATLTAEKSSSTVNMQVTSLTSEDSAIYFCARGGSSDRIYYYAMDYWGQGTSVTVSS
VL: DIQMNQSPSSLSASLGDTITITCHASQNINVWLSWYQQKPGNIPKLLIYKASNLHTGVPSRFSGSGSGTGFTLTISSLQPEDIATYYCQQGQSYPLTFGSGTKLEVK
notes: murine IgG
B20: SCT-Fa100 (antibody, V domains shown)
VH: QVQLKQSGAELVRPGTSVKLSCKASGYTLIDYYINWVKQRPGQGLEWIARIYPGNGNTYYNEKFKGKATLTAEKSSSTVNMQVSSLTSEDSAVYFCARGGSSDRIYYFAMDYWGQGTSVTVSS
VL: DIQMNQSPSSLSASLGDTITITCHASQNINVWLSWYQQKPGNIPKLLIYKASNLHTGVPSRFSGSGSGTGFTLTISSLQPEDIATYYCQQGQSYPLTFGSGTKLEIK
notes: murine IgG
B21: SCT-Fa093 (antibody, V domains shown)
VH: QVHLKQSGAELVRPGTSVKLSCKASGYTLTDYYINWVKQRPGQGLEWIARIYPGNGNTYYNEKFKGKATLTAEKSSSTVNMQVSSLTSEDSAVYFCARGGSSDRIYYYAMDYWGQGTSVTVSS
VL: DIQMNQSPSSLSASLGDTITITCHASQNINVWLSWYQQKPGNIPKLLIYKASNLHTGVPSRFSGSGSGTGFTLTISSLQPEDIATYYCQQGQSYPLTFGSGTKLEIK
notes: murine IgG
B22: SCT-Fa098 (antibody, V domains shown)
VH: QVQLKQSGAELVRPGTSVKLSCKASGYILTDYYINWVKQRPGQGLEWIARIYPGNGNTYYNEKFKGKATLTAEKSSSTVNMQVSSLTSEDSAVYFCARGGSSDRIYYYAMDYWGQGTSVTVSS
VL: DIQMNQSPSSLSASLGDTITITCHASQNINVWLSWYQQKPGNIPKLLIYKASNLHTGVPSRFSGSGSGTGFTLAISSLQPEDIATYYCQQGQSYPLTFGSGTKLALK
notes: murine IgG
B23: SCT-Fa102 (antibody, V domains shown)
VH: QVQLKQSGAELVRPGTSVKLSCKASGYTLNDYYINWVKQRPGQGLEWIARIYPGNNNTYYNEKFKGKATLTAEKSSNTAYMQVSSLTSEDSAVYFCARGGSSVRVYYYAMDYWGQGTSVTVSS
VL: DIQMNQSPSSLSASLGDTITITCHASQNINVWLSWYQQKPGNIPKLLIYKASNLHTGVPSRFSGSGSGTGFTLTISSLQPEDIATYYCQQGQSYPLTFGSGTKLEIK
notes: murine IgG
B24: SCT-Fa099 (antibody, V domains shown)
VH: QVQLKQSGAELVRPGTSVKLSCKASGYILTDYYINWVKQRPGQGLEWIARIYPGNGNTYYNEKFKGKATLTAEKSSSTVNMQVSSLTSEDSAVYFCARGGSSDRIYYYAMDYWGQGTSVTVSS
VL: DIQMNQSPSSLSASLGDTITITCHASQNINVWLSWYQQKPGNIPKLLIYKASNLHTGVPSRFSGSGSGTGFTLTISSLQPEDIATYYCQQGQSYPLTFGSGTKLEIK
notes: murine IgG
B25: SCT-Fa109 (antibody, V domains shown)
VH: QVQLKQSGAELVRPGTSVKLSCKASGYTLTDYYINWVKQRPGQGLEWIARIYPGNGNTYYNEKFKGKATLTAEKSSSTVNMQVTSLTSEDSAIYFCARGGSSDRIYYYAMDYWGQVTSVTVSS
VL: DIQMNQSPSSLSASLGDTITITCHASQNINVWLSWYQQKPGNIPKLLIYKASNLHTGVPSRFSGSGSGTGFTLTISSLQPEDIATYYCQQGQSYPLTFGSGTKLEVK
notes: murine IgG

target: T1, Human TIM-3 Human Fc tagged protein (human, fluorescently labeled with HiLyte Fluor 555 (sites not given)); assay: capture slide probed with labeled TIM-3-Fc;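 further: IgG from single CD138-enriched plasma cells, isolated from lymphocytes, immobilized on a derivatized glass slide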
T1 construct: Bought construct; also called TIM-3 protein tagged with human Fc; ACROBiosystems catalog no: TM3-H5258

Binding result, binds:
B1
B2
B3
B4
B5
B6
B7
B8
B9
B10
B11
B12
B13
B14
B15
B16
B17
B18
B19
B20
B21
B22
B23
B24
B25
